Measurements taken from patent US20230395193A1 (priority 2020, published 2023).

B1: E-Q8IWA5 (protein, UniProt Q8IWA5 1-706, looked up)
Choline transporter-like …: MGDERPHYYGKHGTPQKYDPTFKGPIYNRGCTDIICCVFLLLAIVGYVAVGIIAWTHGDPRKVIYPTDSRGEFCGQKGTKNENKPYLFYFNIVKCASPLVLLEFQCPTPQICVEKCPDRYLTYLNARSSRDFEYYKQFCVPGFKNNKGVAEVLQDGDCPAVLIPSKPLARRCFPAIHAYKGVLMVGNETTYEDGHGSRKNITDLVEGAKKANGVLEARQLAMRIFEDYTVSWYWIIIGLVIAMAMSLLFIILLRFLAGIMVWVMIIMVILVLGYGIFHCYMEYSRLRGEAGSDVSLVDLGFQTDFRVYLHLRQTWLAFMIILSILEVIIILLLIFLRKRILIAIALIKEASRAVGYVMCSLLYPLVTFFLLCLCIAYWASTAVFLSTSNEAVYKIFDDSPCPFTAKTCNPETFPSSNESRQCPNARCQFAFYGGESGYHRALLGLQIFNAFMFFWLANFVLALGQVTLAGAFASYYWALRKPDDLPAFPLFSAFGRALRYHTGSLAFGALILAIVQIIRVILEYLDQRLKAAENKFAKCLMTCLKCCFWCLEKFIKFLNRNAYIMIAIYGTNFCTSARNAFFLLMRNIIRVAVLDKVTDFLFLLGKLLIVGSVGILAFFFFTHRIRIVQDTAPPLNYYWVPILTVIVGSYLIAHGFFSVYGMCVDTLFLCFLEDLERNDGSAERPYFMSSTLKKLLNKTNKKAAES
B2: E-Q6DD88 (protein, UniProt Q6DD88 1-541, looked up)
Atlastin-3: MLSPQRVAAAASRGADDAMESSKPGPVQVVLVQKDQHSFELDEKALASILLQDHIRDLDVVVVSVAGAFRKGKSFILDFMLRYLYSQKESGHSNWLGDPEEPLTGFSWRGGSDPETTGIQIWSEVFTVEKPGGKKVAVVLMDTQGAFDSQSTVKDCATIFALSTMTSSVQIYNLSQNIQEDDLQQLQLFTEYGRLAMDEIFQKPFQTLMFLVRDWSFPYEYSYGLQGGMAFLDKRLQVKEHQHEEIQNVRNHIHSCFSDVTCFLLPHPGLQVATSPDFDGKLKDIAGEFKEQLQALIPYVLNPSKLMEKEINGSKVTCRGLLEYFKAYIKIYQGEDLPHPKSMLQATAEANNLAAAASAKDIYYNNMEEVCGGEKPYLSPDILEEKHCEFKQLALDHFKKTKKMGGKDFSFRYQQELEEEIKELYENFCKHNGSKNVFSTFRTPAVLFTGIVALYIASGLTGFIGLEVVAQLFNCMVGLLLIALLTWGYIRYSGQYRELGGAIDFGAAYVLEQASSHIGNSTQATVRDAVVGRPSMDKKAQ
modifications: interactor of SARS-CoV-2 E
B3: M-Q9ULF5 (protein, UniProt Q9ULF5 26-831, looked up)
Zinc transporter ZIP10: HEEHDHGPEALHRQHRGMTELEPSKFSKQAAENEKKYYIEKLFERYGENGRLSFFGLEKLLTNLGLGERKVVEINHEDLGHDHVSHLDILAVQEGKHFHSHNHQHSHNHLNSENQTVTSVSTKRNHKCDPEKETVEVSVKSDDKHMHDHNHRLRHHHRLHHHLDHNNTHHFHNDSITPSERGEPSNEPSTETNKTQEQSDVKLPKGKRKKKGRKSNENSEVITPGFPPNHDQGEQYEHNRVHKPDRVHNPGHSHVHLPERNGHDPGRGHQDLDPDNEGELRHTRKREAPHVKNNAIISLRKDLNEDDHHHECLNVTQLLKYYGHGANSPISTDLFTYLCPALLYQIDSRLCIEHFDKLLVEDINKDKNLVPEDEANIGASAWICGIISITVISLLSLLGVILVPIINQGCFKFLLTFLVALAVGTMSGDALLHLLPHSQGGHDHSHQHAHGHGHSHGHESNKFLEEYDAVLKGLVALGGIYLLFIIEHCIRMFKHYKQQRGKQKWFMKQNTEESTIGRKLSDHKLNNTPDSDWLQLKPLAGTDDSVVSEDRLNETELTDLEGQQESPPKNYLCIEEEKIIDHSHSDGLHTIHEHDLHAAAHNHHGENKTVLRKHNHQWHHKHSHHSHGPCHSGSDLKETGIANIAWMVIMGDGIHNFSDGLAIGAAFSAGLTGGISTSIAVFCHELPHELGDFAVLLKAGMTVKQAIVYNLLSAMMAYIGMLIGTAVGQYANNITLWIFAVTAGMFLYVALVDMLPEMLHGDGDNEEHGFCPVGQFILQNLGLLFGFAIMLVIALYEDKIVFDIQF
B4: E-Q6UX04 (protein, UniProt Q6UX04 2-472, looked up)
Spliceosome-associated …: SNIYIQEPPTNGKVLLKTTAGDIDIELWSKEAPKACRNFIQLCLEAYYDNTIFHRVVPGFIVQGGDPTGTGSGGESIYGAPFKDEFHSRLRFNRRGLVAMANAGSHDNGSQFFFTLGRADELNNKHTIFGKVTGDTVYNMLRLSEVDIDDDERPHNPHKIKSCEVLFNPFDDIIPREIKRLKKEKPEEEVKKLKPKGTKNFSLLSFGEEAEEEEEEVNRVSQSMKGKSKSSHDLLKDDPHLSSVPVVESEKGDAPDLVDDGEDESAEHDEYIDGDEKNLMRERIAKKLKKDTSANVKSAGEGEVEKKSVSRSEELRKEARQLKRELLAAKQKKVENAAKQAEKRSEEEEAPPDGAVAEYRREKQKYEALRKQQSKKGTSREDQTLALLNQFKSKLTQAIAETPENDIPETEVEDDEGWMSHVLQFEDKSRKVKDASMQDSDTFEIYDPRNPVNKRRREESKKLMREKKERR
modifications: interactor of E protein
B5: M-Q9UI26 (protein, UniProt Q9UI26 1-975, looked up)
Importin-11: MDLNSASTVVLQVLTQATSQDTAVLKPAEEQLKQWETQPGFYSVLLNIFTNHTLDINVRWLAVLYFKHGIDRYWRRVAPHALSEEEKTTLRAGLITNFNEPINQIATQIAVLIAKVARLDCPRQWPELIPTLIESVKVQDDLRQHRALLTFYHVTKTLASKRLAADRKLFYDLASGIYNFACSLWNHHTDTFLQEVSSGNEAAILSSLERTLLSLKVLRKLTVNGFVEPHKNMEVMGFLHGIFERLKQFLECSRSIGTDNVCRDRLEKTIILFTKVLLDFLDQHPFSFTPLIQRSLEFSVSYVFTEVGEGVTFERFIVQCMNLIKMIVKNYAYKPSKNFEDSSPETLEAHKIKMAFFTYPTLTEICRRLVSHYFLLTEEELTMWEEDPEGFTVEETGGDSWKYSLRPCTEVLFIDIFHEYNQTLTPVLLEMMQTLQGPTNVEDMNALLIKDAVYNAVGLAAYELFDSVDFDQWFKNQLLPELQVIHNRYKPLRRRVIWLIGQWISVKFKSDLRPMLYEAICNLLQDQDLVVRIETATTLKLTVDDFEFRTDQFLPYLETMFTLLFQLLQQVTECDTKMHVLHVLSCVIERVNMQIRPYVGCLVQYLPLLWKQSEEHNMLRCAILTTLIHLVQGLGADSKNLYPFLLPVIQLSTDVSQPPHVYLLEDGLELWLVTLENSPCITPELLRIFQNMSPLLELSSENLRTCFKIINGYIFLSSTEFLQTYAVGLCQSFCELLKEITTEGQVQVLKVVENALKVNPILGPQMFQPILPYVFKGIIEGERYPVVMSTYLGVMGRVLLQNTSFFSSLLNEMAHKFNQEMDQLLGNMIEMWVDRMDNITQPERRKLSALALLSLLPSDNSVIQDKFCGIINISVEGLHDVMTEDPETGTYKDCMLMSHLEEPKVTEDEEPPTEQDKRKKMLALKDPVHTVSLQQFIYEKLKAQQEMLGEQGFQSLMETVDTEIVTQLQEFLQGF
modifications: interactor of M protein
B6: M-Q9UKV5 (protein, UniProt Q9UKV5 1-643, looked up)
E3 ubiquitin-protein ligase …: MPLLFLERFPWPSLRTYTGLSGLALLGTIISAYRALSQPEAGPGEPDQLTASLQPEPPAPARPSAGGPRARDVAQYLLSDSLFVWVLVNTACCVLMLVAKLIQCIVFGPLRVSERQHLKDKFWNFIFYKFIFIFGVLNVQTVEEVVMWCLWFAGLVFLHLMVQLCKDRFEYLSFSPTTPMSSHGRVLSLLVAMLLSCCGLAAVCSITGYTHGMHTLAFMAAESLLVTVRTAHVILRYVIHLWDLNHEGTWEGKGTYVYYTDFVMELTLLSLDLMHHIHMLLFGNIWLSMASLVIFMQLRYLFHEVQRRIRRHKNYLRVVGNMEARFAVATPEELAVNNDDCAICWDSMQAARKLPCGHLFHNSCLRSWLEQDTSCPTCRMSLNIADNNRVREEHQGENLDENLVPVAAAEGRPRLNQHNHFFHFDGSRIASWLPSFSVEVMHTTNILGITQASNSQLNAMAHQIQEMFPQVPYHLVLQDLQLTRSVEITTDNILEGRIQVPFPTQRSDSIRPALNSPVERPSSDQEEGETSAQTERVPLDLSPRLEETLDFGEVEVEPSEVEDFEARGSRFSKSADERQRMLVQRKDELLQQARKRFLNKSSEDDAASESFLPSEGASSDPVTLRRRMLAAAAERRLQKQQTS
B7: M-Q9ULX6 (protein, UniProt Q9ULX6 1-646, looked up)
A-kinase anchor protein 8-like: MSYTGFVQGSETTLQSTYSDTSAQPTCDYGYGTWNSGTNRGYEGYGYGYGYGQDNTTNYGYGMATSHSWEMPSSDTNANTSASGSASADSVLSRINQRLDMVPHLETDMMQGGVYGSGGERYDSYESCDSRAVLSERDLYRSGYDYSELDPEMEMAYEGQYDAYRDQFRMRGNDTFGPRAQGWARDARSGRPMASGYGRMWEDPMGARGQCMSGASRLPSLFSQNIIPEYGMFQGMRGGGAFPGGSRFGFGFGNGMKQMRRTWKTWTTADFRTKKKKRKQGGSPDEPDSKATRTDCSDNSDSDNDEGTEGEATEGLEGTEAVEKGSRVDGEDEEGKEDGREEGKEDPEKGALTTQDENGQTKRKLQAGKKSQDKQKKRQRDRMVERIQFVCSLCKYRTFYEDEMASHLDSKFHKEHFKYVGTKLPKQTADFLQEYVTNKTKKTEELRKTVEDLDGLIQQIYRDQDLTQEIAMEHFVKKVEAAHCAACDLFIPMQFGIIQKHLKTMDHNRNRRLMMEQSKKSSLMVARSILNNKLISKKLERYLKGENPFTDSPEEEKEQEEAEGGALDEGAQGEAAGISEGAEGVPAQPPVPPEPAPGAVSPPPPPPPEEEEEGAVPLLGGALQRQIRGIPGLDVEDDEEGGGGAP
B8: E-Q8WY22 (protein, UniProt Q8WY22 1-251, looked up)
BRI3-binding protein: MGARASGGPLARAGLLLLLLLLLLLGLLAPGAQGARGRGGAEKNSYRRTVNTFSQSVSSLFGEDNVRAAQKFLARLTERFVLGVDMFVETLWKVWTELLDVLGLDVSNLSQYFSPASVSSSPARALLLVGVVLLAYWFLSLTLGFTFSVLHVVFGRFFWIVRVVLFSMSCVYILHKYEGEPENAVLPLCFVVAVYFMTGPMGFYWRSSPSGPSNPSNPSVEEKLEHLEKQVRLLNIRLNRVLESLDRSKDK
modifications: prey of SARS-CoV-2 E

Test system: SARS-CoV-1, MERS-CoV and SARS-CoV-2 proteins in HEK293T cells
Parameters: species or system human

Question: Which results are given for B1?
Answer: MIST_MERS: 0; MIST_SARS1: 0; MIST_SARS2: 0.9503; Saint_MERS: 0; Saint_SARS1: 0; Saint_SARS2: 0.98

Question: B2 was tested. Which MIST_MERS did it give?
Answer: 0.9832

Question: And the MIST_SARS1?
Answer: 0

Question: What about the MIST_SARS2 of the same molecule?
Answer: 0

Question: What about the Saint_MERS of the same molecule?
Answer: 1

Question: What about the Saint_SARS1 of the same molecule?
Answer: 0

Question: And the Saint_SARS2?
Answer: 0

Question: What does the source list for B3?
Answer: MIST_MERS: 0; MIST_SARS1: 0.7375; MIST_SARS2: 0; Saint_MERS: 0; Saint_SARS1: 1; Saint_SARS2: 0

Question: How did the MIST_MERS turn out when B4 was run?
Answer: 0.03892

Question: What about the MIST_SARS1 of the same molecule?
Answer: 0.6535

Question: And the MIST_SARS2?
Answer: 0.8931

Question: And the Saint_MERS?
Answer: 0

Question: And the Saint_SARS1?
Answer: 0.98

Question: And the Saint_SARS2?
Answer: 0.66

Question: Which MIST_MERS does the source give for B5 here?
Answer: 0.9937

Question: What about the MIST_SARS1 of the same molecule?
Answer: 0.6822

Question: And the MIST_SARS2?
Answer: 0.6494

Question: What about the Saint_MERS of the same molecule?
Answer: 0.99

Question: What about the Saint_SARS1 of the same molecule?
Answer: 1

Question: What about the Saint_SARS2 of the same molecule?
Answer: 1

Question: What does the source list for B6?
Answer: MIST_MERS: 0.2719; MIST_SARS1: 0.9871; MIST_SARS2: 0.04352; Saint_MERS: 0; Saint_SARS1: 1; Saint_SARS2: 1

Question: Which MIST_MERS does the source give for B7 here?
Answer: 0

Question: And the MIST_SARS1?
Answer: 0.34

Question: What about the MIST_SARS2 of the same molecule?
Answer: 0.752

Question: And the Saint_MERS?
Answer: 0

Question: What about the Saint_SARS1 of the same molecule?
Answer: 0.98

Question: And the Saint_SARS2?
Answer: 1

Question: What does the source list for B8?
Answer: MIST_MERS: 0.9912; MIST_SARS1: 0; MIST_SARS2: 0; Saint_MERS: 1; Saint_SARS1: 0; Saint_SARS2: 0
